Experimental data taken from patent US20260097105A1, “SYSTEMS, FORMULATIONS AND METHODS FOR GENERATING UNIVERSAL PEPTIDE/MHC COMPLEXES WITH ENGINEERED DISULFIDE CONNECTING THE HEAVY AND LIGHT CHAINS” (priority 2022, published 2026).

How the values were obtained:
[1] = target: WT HLA-A*29:02/β2m/[…] (human); assay: competition; conditions: chains peptide; modification not given
[2] = target: open HLA-A*24:02 (G120C)/β2m (H31C)/… (human); assay: fluorescence polarization, peptide exchange, 200 nM pMHC

Row | Binder | IC50 [1] [nM] | fold of peptide exchange kinetics (Kassoc.) against WT HLA-A*24:02 [2] [fold]
1 | ALIDVFHQY | 49 | –
2 | KYNPIRTTF (modifications not checked) | – | 6
